Residue numbers refer to the chain shown, from its start. Numbers in names are those of the source.
Tests used:
PstII Mod subunit = assay: SEC-MALS; 0.5–1.0 mg/ml (1.25–2.5 µM) enzyme, Superdex 200, Standard Assay Buffer minus BSA (50 mM Tris–HCl pH 8.0, 50 mM KCl, 10 mM MgCl2, 1 mM DTT), room temperature; enzyme alone or with excess Hex-labelled specific 50-mer DNA, with or without 1 mM ATP
PstII Res subunit = assay: as above
[1] = target: EcoPI Res subunit (wild type, untagged) (Escherichia coli); assay: native MS; enzyme only, 10 µM, dialysed against 100 mM ammonium acetate pH 7.0; Q-TOF II modified for high-mass operation
[2] = target: EcoPI Res subunit (wild type, untagged) (Escherichia coli); assay: SEC-MALS; 0.5–1.0 mg/ml (1.25–2.5 µM) enzyme, Superdex 200, Standard Assay Buffer minus BSA (50 mM Tris–HCl pH 8.0, 50 mM KCl, 10 mM MgCl2, 1 mM DTT), room temperature; enzyme alone or with excess Hex-labelled specific 50-mer DNA, with or without 1 mM ATP
[3] = target: T1, EcoPI holoenzyme (Res1Mod2) (Escherichia coli, UniProt P08764;P08763 1-970;1-646); assay: native MS; no ATP; 1:1 complex 288.1 kDa; SEC-MALS: 50 mM Tris-HCl pH 8.0, 50 mM KCl, 10 mM MgCl2, 1 mM DTT, 0.1 mg/ml BSA (Standard Assay Buffer), 20 C; native MS: volatile ammonium acetate buffer, enzyme:DNA 1:2; conditions: protein: recombinant; tags: none; copies: 1;2
[4] = target: T1, EcoPI holoenzyme (Res1Mod2); assay: SEC-MALS; 10 mM Mg2+, no ATP; 1:1 Res1Mod2:DNA; SEC-MALS: 50 mM Tris-HCl pH 8.0, 50 mM KCl, 10 mM MgCl2, 1 mM DTT, 0.1 mg/ml BSA (Standard Assay Buffer), 20 C; native MS: volatile ammonium acetate buffer, enzyme:DNA 1:2; conditions: protein: recombinant; tags: none; copies: 1;2; label: 5'-Hex (12C linker) on top strand
[5] = target: T2, EcoP15I Res subunit (wild type, untagged) (Escherichia coli, UniProt Q5ZND2 1-970); assay: native MS; enzyme only, 10 µM, dialysed against 100 mM ammonium acetate pH 7.0; Q-TOF II modified for high-mass operation; conditions: both partners purified
T2 construct: Res (restriction) subunit of the Type III restriction endonuclease EcoP15I, Escherichia coli; Made only together with Mod from the natural operon; also called wt EcoP15I
T2 sequence (looked up): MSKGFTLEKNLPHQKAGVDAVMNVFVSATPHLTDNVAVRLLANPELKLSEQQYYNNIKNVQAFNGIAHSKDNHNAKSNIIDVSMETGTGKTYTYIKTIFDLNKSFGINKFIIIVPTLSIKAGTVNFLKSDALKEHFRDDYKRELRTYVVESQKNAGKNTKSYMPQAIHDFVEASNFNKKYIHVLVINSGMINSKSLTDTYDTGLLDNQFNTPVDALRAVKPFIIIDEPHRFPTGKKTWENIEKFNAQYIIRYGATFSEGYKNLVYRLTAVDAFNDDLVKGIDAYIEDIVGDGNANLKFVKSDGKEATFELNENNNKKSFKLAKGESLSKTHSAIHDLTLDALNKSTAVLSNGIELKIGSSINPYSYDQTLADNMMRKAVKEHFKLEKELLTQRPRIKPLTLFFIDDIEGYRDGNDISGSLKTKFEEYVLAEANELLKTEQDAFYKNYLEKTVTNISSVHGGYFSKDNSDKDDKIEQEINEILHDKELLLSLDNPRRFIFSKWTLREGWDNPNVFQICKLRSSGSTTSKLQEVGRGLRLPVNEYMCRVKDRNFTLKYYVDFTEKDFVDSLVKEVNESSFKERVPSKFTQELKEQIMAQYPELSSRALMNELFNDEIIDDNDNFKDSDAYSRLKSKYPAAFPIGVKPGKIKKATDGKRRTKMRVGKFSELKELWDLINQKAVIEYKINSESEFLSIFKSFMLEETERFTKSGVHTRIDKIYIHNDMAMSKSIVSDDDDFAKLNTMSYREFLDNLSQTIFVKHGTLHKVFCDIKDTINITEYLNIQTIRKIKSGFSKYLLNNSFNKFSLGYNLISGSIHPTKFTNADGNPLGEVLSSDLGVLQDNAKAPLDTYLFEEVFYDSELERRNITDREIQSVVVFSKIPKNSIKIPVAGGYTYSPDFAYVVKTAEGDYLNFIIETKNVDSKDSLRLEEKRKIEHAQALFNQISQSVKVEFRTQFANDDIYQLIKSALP

[6] = target: T3, EcoP15I Res subunit with C-terminal Avi-tag, biotinylated (Escherichia coli, UniProt Q5ZND2 1-970, biotin on the Avi-tag (co-expressed biotin ligase)); assay: as above; conditions: both partners purified
T3 construct: Res subunit of the Type III restriction endonuclease EcoP15I, Escherichia coli; also called biotinylated EcoP15I; bio-EcoP15I; not shown: Avi-tag, C-terminal, kept
T3 sequence (looked up): T2 sequence (looked up)

[7] = target: the molecule itself; assay: native MS; wt EcoP15I 5 µM with 10 µM 50-mer DNA (1:2), 2 mM magnesium acetate (4 mM MgOAc and 2 mM ATP where ATP was added), buffer-exchanged into 100 mM ammonium acetate; Synapt G2 HDMS
[8] = target: T4, EcoP15I Res subunit R534A (Escherichia coli, UniProt Q5ZND2 1-970, R534A); assay: SEC-MALS; 0.5–1.0 mg/ml (1.25–2.5 µM) enzyme, Superdex 200, Standard Assay Buffer minus BSA (50 mM Tris–HCl pH 8.0, 50 mM KCl, 10 mM MgCl2, 1 mM DTT), room temperature; enzyme alone or with excess Hex-labelled specific 50-mer DNA, with or without 1 mM ATP; conditions: both partners purified
T4 construct: Res subunit of the Type III restriction endonuclease EcoP15I, Escherichia coli; mutated in Motif VI of the helicase, lacks ATPase activity; also called R534A EcoP15I; R534A P15I; source: purified identically to the wild-type (DEAE-Sepharose, heparin, Superdex 200), co-purified with Mod
T4 sequence (looked up): T2 sequence (looked up) with R534A

[9] = target: T5, EcoP15I Res subunit (commercial enzyme from New England Biolabs) (Escherichia coli, UniProt Q5ZND2 1-970); assay: as above; conditions: both partners purified
T5 construct: Res subunit of the Type III restriction endonuclease EcoP15I, Escherichia coli; also called EcoP15I NEB; commercially available EcoP15I; source: bought: NEB (catalogue no. R0646S)
T5 sequence (looked up): T2 sequence (looked up)

PstII Mod subunit (enzyme)
stoichiometry N (PstII Mod subunit): 2
stoichiometry N (PstII Res subunit): 2 Mod per Res

EcoPI Mod subunit (untagged) (enzyme)
stoichiometry N [1]: 2 Mod per Res
stoichiometry N [2]: 2 Mod per Res

B1: EcoPI specific 50-mer duplex (sDNA), native MS (dsDNA)
DNA 1: TGGCTTAGACCCAGCGCAGATACCAAAACTGTCCTTCTATTGACAATTCG
DNA 2: CGAATTGTCAATAGAAGGACAGTTTTGGTATCTGCGCTGGGTCTAAGCCA
binding result [3]: binds

B2: EcoPI specific 50-mer duplex (sDNA), Hex (dsDNA)
DNA 1: B1 DNA 1
DNA 2: B1 DNA 2
binding result [4]: binds

B3: EcoP15I Mod subunit (untagged) (enzyme, Escherichia coli, UniProt P12364 1-644, looked up)
chain: MKKETIFSEVETANSKQLAVLKANFPQCFDKNGAFIQEKLLEIIRASEVELSKESYSLNWLGKSYARLLANLPPKTLLAEDKTHNQQEENKNSQHLLIKGDNLEVLKHMVNAYAEKVKMIYIDPPYNTGKDGFVYNDDRKFTPEQLSELAGIDLDEAKRILEFTTKGSSSHSAWLTFIYPRLYIARELMREDGTIFISIDHNEFSQLKLVCDEIFGEQNHVGDLVWKNATDNNPSNIAVEHEYIIVYTKNKEQLISEWKSNISDVKNLLVNIGEEFASKYTGNELQEKYTQWFREHRSELWPLDRYKYIDKDGIYTGSQSVHNPGKEGYRYDIIHPKTKKPCKQPLMGYRFPLDTMDRLLSEEKIIFGDDENKIIELKVYAKDYKQKLSSVIHLDGRVATNELKELFPEMTQPFTNAKTIKLVEDLISFACDGEGIVLDFFAGSGTTAHTVFNLNNKNKTSYQFITVQLDEPTKDKSDAMKHGYNTIFDLTKERLIRASKKNRDQGFKVYQLMPDFRAKDESELTLSNHTFFDDVVLTPEQYDTLLTTWCLYDGSLLTTPIEDVDLGGYKAHLCDGRLYLIAPNFTSEALKALLQKVDSDKDFAPNKVVFYGSNFESAKQMELNEALKSYANKKSIELDLVVRN
notes: Mod (modification) subunit of the Type III restriction endonuclease EcoP15I, Escherichia coli; also called Mod2 (as dimer); source: with biotinylated Res: avidin resin, Mono-Q
stoichiometry N [5]: 2 Mod per Res
stoichiometry N [6]: 2 Mod per Res
stoichiometry N [7]: 2
binding result [8]: binds

B4: EcoP15I Mod subunit (commercial enzyme from New England Biolabs) (enzyme, Escherichia coli, UniProt P12364 1-644, looked up)
chain: B3 chain
notes: Mod subunit of the Type III restriction endonuclease EcoP15I, Escherichia coli; also called EcoP15I NEB; commercially available EcoP15I; source: bought: NEB (catalogue no. R0646S)
stoichiometry N [9]: 2 Mod per Res
